B1: HA-tagged Vpr from HIV-1 LAI (natural protein)
chain: MEQAPEDQGPQREPHNEWTLELLEELKNEAVRHFPRIWLHGLGQHIYETYGDTWAGVEAIIRILQQLLFIHFRIGCRHSRIGVTQQRRARNGASRS

Legend:
DCAF1 [1] = target: DCAF1 (UniProt Q9Y4B6)
DCAF1 [2] = target: DCAF1 (UniProt Q9Y4B6 1-1507); test: cell-based or functional assay
DCAF1 (UniProt Q9Y4B6 1-1507), sequence (Q9Y4B6 whole entry): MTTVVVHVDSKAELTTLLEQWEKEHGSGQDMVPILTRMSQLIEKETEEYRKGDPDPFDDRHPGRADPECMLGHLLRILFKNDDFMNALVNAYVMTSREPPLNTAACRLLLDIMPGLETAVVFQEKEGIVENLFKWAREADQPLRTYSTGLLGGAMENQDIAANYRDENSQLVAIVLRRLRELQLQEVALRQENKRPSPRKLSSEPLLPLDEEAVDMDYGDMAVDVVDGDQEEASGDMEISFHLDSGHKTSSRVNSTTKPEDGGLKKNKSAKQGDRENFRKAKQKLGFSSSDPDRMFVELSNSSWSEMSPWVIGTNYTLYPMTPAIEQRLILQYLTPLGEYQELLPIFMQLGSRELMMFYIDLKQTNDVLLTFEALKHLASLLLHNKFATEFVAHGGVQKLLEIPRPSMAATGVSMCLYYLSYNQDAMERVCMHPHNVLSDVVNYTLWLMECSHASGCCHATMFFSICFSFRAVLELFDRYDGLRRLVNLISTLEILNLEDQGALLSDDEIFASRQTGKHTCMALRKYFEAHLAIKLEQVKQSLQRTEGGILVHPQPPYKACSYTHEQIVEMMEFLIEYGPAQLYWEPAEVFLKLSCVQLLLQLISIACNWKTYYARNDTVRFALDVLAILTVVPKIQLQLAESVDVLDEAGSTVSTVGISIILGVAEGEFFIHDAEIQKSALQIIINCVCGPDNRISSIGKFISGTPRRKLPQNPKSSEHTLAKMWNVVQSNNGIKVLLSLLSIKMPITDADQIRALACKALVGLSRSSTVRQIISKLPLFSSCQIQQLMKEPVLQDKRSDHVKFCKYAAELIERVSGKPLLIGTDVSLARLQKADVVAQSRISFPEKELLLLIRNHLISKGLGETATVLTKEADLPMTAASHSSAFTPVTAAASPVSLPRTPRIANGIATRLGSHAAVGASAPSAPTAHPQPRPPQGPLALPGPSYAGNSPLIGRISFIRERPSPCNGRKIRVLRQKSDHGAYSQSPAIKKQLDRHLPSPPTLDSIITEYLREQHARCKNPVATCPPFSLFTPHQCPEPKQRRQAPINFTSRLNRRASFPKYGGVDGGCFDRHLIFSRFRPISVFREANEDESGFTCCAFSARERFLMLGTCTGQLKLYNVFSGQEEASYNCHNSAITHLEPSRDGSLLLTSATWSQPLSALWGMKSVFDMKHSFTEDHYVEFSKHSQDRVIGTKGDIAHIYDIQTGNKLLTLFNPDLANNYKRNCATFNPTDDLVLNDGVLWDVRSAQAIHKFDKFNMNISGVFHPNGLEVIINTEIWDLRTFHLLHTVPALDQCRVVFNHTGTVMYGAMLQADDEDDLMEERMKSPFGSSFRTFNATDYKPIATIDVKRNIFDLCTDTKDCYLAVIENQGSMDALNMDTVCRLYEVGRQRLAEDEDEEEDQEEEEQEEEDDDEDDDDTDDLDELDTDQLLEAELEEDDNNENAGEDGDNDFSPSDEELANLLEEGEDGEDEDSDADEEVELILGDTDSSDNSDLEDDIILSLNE

DCAF1 (UniProt Q9Y4B6), sequence (Q9Y4B6 whole entry): as above

Molecule	sZIP expression (FLAG/GFP signal ratio by Western blot) left in HeLa cells co-expressing FLAG-sZIP and the HA-tagged Vpr protein (DCAF1 [1]) [%]	sZIP expression (FLAG/GFP signal ratio by Western blot) left in HeLa cells co-expressing FLAG-sZIP and the HA-tagged Vpr protein (DCAF1 [2]) [%]
VprQ65R (from UniProt P05928 1-96) (natural protein)	50	
B1		< 15

From publication PMC3792905, “HIV-1 Vpr Induces the Degradation of ZIP and sZIP, Adaptors of the NuRD Chromatin Remodeling Complex, by Hijacking DCAF1/VprBP” (PLoS ONE, 2013)
